Measurements taken from PMC8092277, “Cytoplasmic CPSF6 Regulates HIV-1 Capsid Trafficking and Infection in a Cyclophilin A-Dependent Manner” (mBio, 2021).

Molecular target: the molecule itself
Assay: negative-stain TEM; MBP-CPSF6 P1 or P2 alone, incubated in CA assembly buffer

B1: MBP-His6-CPSF6-588 (natural protein, UniProt Q16630-2 1-588, looked up)
chain: MADGVDHIDIYADVGEEFNQEAEYGGHDQIDLYDDVISPSANNGDAPEDRDYMDTLPPTVGDDVGKGAAPNVVYTYTGKRIALYIGNLTWWTTDEDLTEAVHSLGVNDILEIKFFENRANGQSKGFALVGVGSEASSKKLMDLLPKRELHGQNPVVTPCNKQFLSQFEMQSRKTTQSGQMSGEGKAGPPGGSSRAAFPQGGRGRGRFPGAVPGGDRFPGPAGPGGPPPPFPGNLIKHLVKGTRPLFLETRIPWHMGHSIEEIPIFGLKAGQTPPRPPLGPPGPPGPPGPPPPGQVLPPPLAGPPNRGDRPPPPVLFPGQPFGQPPLGPLPPGPPPPVPGYGPPPGPPPPQQGPPPPPGPFPPRPPGPLGPPLTLAPPPHLPGPPPGAPPPAPHVNPAFFPPPTNSGMPTSDSRGPPPTDPYGRPPPYDRGDYGPPGREMDTARTPLSEAEFEEIMNRNRAISSSAISRAVSDASAGDYGSAIETLVTAISLIKQSKVSADDRCKVLISSLQDCLHGIESKSYGSGSRRERSRERDHSRSREKSRRHKSRSRDRHDDYYRERSRERERHRDRDRDRDRERDREREYRHR
notes: cleavage and polyadenylation specificity factor 6 (CPSF6), the isoform of 588 residues, full length; Order: MBP, His6, CPSF6; An HRV-3C site allows removal of MBP, but the cleaved protein precipitated, so the tagged protein was used; Size exclusion gave two peaks of the same construct, P1 and P2, which are kept here as one molecule; also called MBP-CPSF6; full-length CPSF6; source: Expi 293F …
B1: binds.
